Data set [1] has as its system HeLa Kyoto. Kind of data set: solubility change mitosis vs G1/S (difference of NP-40 vs SDS log2 ratios) (log2 ratio difference); higher = more soluble in mitosis.
Data set [2] deals with HeLa Kyoto. Kind of data set: melting temperature (median over replicates), in situ; higher = more thermally stable.
Data set [3] deals with HeLa Kyoto. Kind of data set: thermal stability score vs G1/S (z-score of summed log2 fold changes over temperatures); higher = more thermally stable than in G1/S.
Data set [4] concerns HeLa Kyoto. Kind of data set: solubility in G1/S (NP-40 vs SDS abundance) (log2 ratio); higher = more soluble. To be noted: cell cycle stage: G1/S.
Setting [5] is: cell cycle stage: early G1 (4.5 h after nocodazole release).
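For melting temperature (median over replicates), in situ in this document: HeLa Kyoto cells synchronized by double thymidine or nocodazole block, proteins quantified by TMT10plex mass spectrometry, three independent biological replicates.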
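For solubility change mitosis vs G1/S (difference of NP-40 vs SDS log2 ratios) in this document: synchronized HeLa Kyoto cells (double thymidine block for G1/S, nocodazole release for mitosis), protein amounts in NP-40 versus SDS lysates quantified by mass spectrometry, three biological replicates.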
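For solubility in G1/S (NP-40 vs SDS abundance) in this document: HeLa Kyoto cells arrested at G1/S by double thymidine block, proteins quantified by TMT10plex mass spectrometry in mild NP-40 versus SDS extracts, three biological replicates.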
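For thermal stability score vs G1/S (z-score of summed log2 fold changes over temperatures) in this document: synchronized HeLa Kyoto cells, proteins quantified by TMT10plex mass spectrometry, three biological replicates, mitosis taken 0.5 h after nocodazole release, G1/S directly after double thymidine block.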

Regarding “MPEDQAGAAMEEASPYSLLDICLNFLTTHLEKFCSARQDGTLCLQEPGVFPQEVADRLLRTMAFHGLLNDGTVGIFRGNQMRLKRACIRKAKISAVAFRKAFCHHKLVELDATGVNADITITDIISGLGSNKWIQQNLQCLVLNSLTLSLEDPYERCFSRLSGLRALSITNVLFYNEDLAEVASLPRLESLDISNTSITDITALLACKDRLKSLTMHHLKCLKMTTTQILDVVRELKHLNHLDISDDKQFTSDIALRLLEQKDILPNLVSLDVSGRKHVTDKAVEAFIQQRPSMQFVGLLATDAGYSEFLTGEGHLKVSGEANETQIAEALKRYSERAFFVREALFHLFSLTHVMEKTKPEILKLVVTGMRNHPMNLPVQLAASACVFNLTKQDLAAGMPVRLLADVTHLLLKAMEHFPNHQQLQKNCLLSLCSDRILQDVPFNRFEAAKLVMQWLCNHEDQNMQRMAVAIISILAAKLSTEQTAQLGTELFIVRQLLQIVKQKTNQNSVDTTLKFTLSALWNLTDESPTTCRHFIENQGLELFMRVLESFPTESSIQQKVLGLLNNIAEVQELHSELMWKDFIDHISSLLHSVEVEVSYFAAGIIAHLISRGEQAWTLSRSQRNSLLDDLHSAILKWPTPECEMVAYRSFNPFFPLLGCFTTPGVQLWAVWAMQHVCSKNPSRYCSMLIEEGGLQHLYNIKDHEHTDPHVQQIAVAILDSLEKHIVRHGRPPPCKKQPQARLN [ZYG11B]”, the “solubility change mitosis (log2)” value in the data set with HeLa Kyoto [1] was -0.182. In addition, the results for the melting temperature with HeLa Kyoto [2] (cell cycle stage: G1/S) and with HeLa Kyoto [2] (cell cycle stage: mitosis) were 52.4 °C and 52.3 °C, respectively. Also, the figures for the thermal stability score in the data set on HeLa Kyoto [3] (setting [5]) and in the data set with HeLa Kyoto [3] (cell cycle stage: mitosis) were 2.24 and 0.857, respectively. Further, the “solubility in G1/S (log2)” value in the data set on HeLa Kyoto [4] was -0.136.
On to “MPEEGSGCSVRRRPYGCVLRAALVPLVAGLVICLVVCIQRFAQAQQQLPLESLGWDVAELQLNHTGPQQDPRLYWQGGPALGRSFLHGPELDKGQLRIHRDGIYMVHIQVTLAICSSTTASRHHPTTLAVGICSPASRSISLLRLSFHQGCTIASQRLTPLARGDTLCTNLTGTLLPSRNTDETFFGVQWVRP [CD70]”, for which the “solubility change mitosis (log2)” value in the data set with HeLa Kyoto [1] is -0.0934. Moreover, the values for the melting temperature with HeLa Kyoto [2] (cell cycle stage: G1/S) and in the data set on HeLa Kyoto [2] (cell cycle stage: mitosis) were 54.9 °C and 57.1 °C, respectively. In addition, the thermal stability score was -2.35 in the data set on HeLa Kyoto [3] (setting [5]) and -1.58 with HeLa Kyoto [3] (cell cycle stage: mitosis). Also, the “solubility in G1/S (log2)” value in the data set on HeLa Kyoto [4] is 0.258.
With “MPFAEDKTYKYICRNFSNFCNVDVVEILPYLPCLTARDQDRLRATCTLSGNRDTLWHLFNTLQRRPGWVEYFIAALRGCELVDLADEVASVYQSYQPRTSDRPPDPLEPPSLPAERPGPPTPAAAHSIPYNSCREKEPSYPMPVQETQAPESPGENSEQALQTLSPRAIPRNPDGGPLESSSDLAALSPLTSSGHQEQDTELGSTHTAGATSSLTPSRGPVSPSVSFQPLARSTPRASRLPGPTGSVVSTGTSFSSSSPGLASAGAAEGKQGAESDQAEPIICSSGAEAPANSLPSKVPTTLMPVNTVALKVPANPASVSTVPSKLPTSSKPPGAVPSNALTNPAPSKLPINSTRAGMVPSKVPTSMVLTKVSASTVPTDGSSRNEETPAAPTPAGATGGSSAWLDSSSENRGLGSELSKPGVLASQVDSPFSGCFEDLAISASTSLGMGPCHGPEENEYKSEGTFGIHVAENPSIQLLEGNPGPPADPDGGPRPQADRKFQEREVPCHRPSPGALWLQVAVTGVLVVTLLVVLYRRRLH [MAVS]”, the “solubility change mitosis (log2)” value in the data set with HeLa Kyoto [1] was -0.239. Further, the melting temperature in the data set on HeLa Kyoto [2] (cell cycle stage: G1/S) is 54.2 °C; in the data set on HeLa Kyoto [2] (cell cycle stage: mitosis), 54.4 °C. Further, the thermal stability score in the data set with HeLa Kyoto [3] (setting [5]) is -0.897; in the data set on HeLa Kyoto [3] (cell cycle stage: mitosis), -0.611. Also, the “solubility in G1/S (log2)” value with HeLa Kyoto [4] was found to be 0.462.
In the case of “MPGPAAGSRARVYAEVNSLRSREYWDYEAHVPSWGNQDDYQLVRKLGRGKYSEVFEAINITNNERVVVKILKPVKKKKIKREVKILENLRGGTNIIKLIDTVKDPVSKTPALVFEYINNTDFKQLYQILTDFDIRFYMYELLKALDYCHSKGIMHRDVKPHNVMIDHQQKKLRLIDWGLAEFYHPAQEYNVRVASRYFKGPELLVDYQMYDYSLDMWSLGCMLASMIFRREPFFHGQDNYDQLVRIAKVLGTEELYGYLKKYHIDLDPHFNDILGQHSRKRWENFIHSENRHLVSPEALDLLDKLLRYDHQQRLTAKEAMEHPYFYPVVKEQSQPCADNAVLSSGLTAAR [CSNK2A2]”, the “solubility change mitosis (log2)” value in the data set with HeLa Kyoto [1] is 0.0267. The melting temperature was 50.7 °C with HeLa Kyoto [2] (cell cycle stage: G1/S) and 50.3 °C in the data set on HeLa Kyoto [2] (cell cycle stage: mitosis). Also, the thermal stability score with HeLa Kyoto [3] (setting [5]) came to 1.94; in the data set with HeLa Kyoto [3] (cell cycle stage: mitosis) it was 2.34. Besides, in the data set on HeLa Kyoto [4], the “solubility in G1/S (log2)” value was -0.244.
Take “MPGSLPLNAEACWPKDVGIVALEIYFPSQYVDQAELEKYDGVDAGKYTIGLGQAKMGFCTDREDINSLCMTVVQNLMERNNLSYDCIGRLEVGTETIIDKSKSVKTNLMQLFEESGNTDIEGIDTTNACYGGTAAVFNAVNWIESSSWDGRYALVVAGDIAVYATGNARPTGGVGAVALLIGPNAPLIFERGLRGTHMQHAYDFYKPDMLSEYPIVDGKLSIQCYLSALDRCYSVYCKKIHAQWQKEGNDKDFTLNDFGFMIFHSPYCKLVQKSLARMLLNDFLNDQNRDKNSIYSGLEAFGDVKLEDTYFDRDVEKAFMKASSELFSQKTKASLLVSNQNGNMYTSSVYGSLASVLAQYSPQQLAGKRIGVFSYGSGLAATLYSLKVTQDATPGSALDKITASLCDLKSRLDSRTGVAPDVFAENMKLREDTHHLVNYIPQGSIDSLFEGTWYLVRVDEKHRRTYARRPTPNDDTLDEGVGLVHSNIATEHIPSPAKKVPRLPATAAEPEAAVISNGEH [HMGCS1]”: the “solubility change mitosis (log2)” value in the data set with HeLa Kyoto [1] was -0.0813. The melting temperature in the data set on HeLa Kyoto [2] (cell cycle stage: G1/S) is 54 °C; with HeLa Kyoto [2] (cell cycle stage: mitosis), 55.2 °C. Also, the thermal stability score is -0.19 with HeLa Kyoto [3] (setting [5]) and 3.42 with HeLa Kyoto [3] (cell cycle stage: mitosis). In the data set on HeLa Kyoto [4], the “solubility in G1/S (log2)” value came to 0.0526.
As to “MPGVKLTTQAYCKMVLHGAKYPHCAVNGLLVAEKQKPRKEHLPLGGPGAHHTLFVDCIPLFHGTLALAPMLEVALTLIDSWCKDHSYVIAGYYQANERVKDASPNQVAEKVASRIAEGFSDTALIMVDNTKFTMDCVAPTIHVYEHHENRWRCRDPHHDYCEDWPEAQRISASLLDSRSYETLVDFDNHLDDIRNDWTNPEINKAVLHLC [EMC8]”, the “solubility change mitosis (log2)” value in the data set on HeLa Kyoto [1] was -0.272. Further, the melting temperature stood at 53.1 °C with HeLa Kyoto [2] (cell cycle stage: G1/S) and 53.3 °C in the data set with HeLa Kyoto [2] (cell cycle stage: mitosis). Moreover, the thermal stability score in the data set with HeLa Kyoto [3] (setting [5]) was -1.83; with HeLa Kyoto [3] (cell cycle stage: mitosis) it was -2.67. The “solubility in G1/S (log2)” value with HeLa Kyoto [4] is 0.269.

The record behind these values is the supplement of paper PMC5998384.
